# Measurements as given in US9994628B2, “Peptides and combination of peptides for use in immunotherapy against various tumors” (IMMATICS BIOTECHNOLOGIES GMBH, priority 2015, dated 2018).
# Target: HLA-A*02:01 (Homo sapiens, UniProt P04439, D140Y/D185E/D98H/E176V/E277Q/G131W/G231S/I119V/I121R/I166T/I218V/L300P/L318F/N151K/N90K/P208A/P217A/Q86G/Q94H/R138H/R169H/T345S)
# Assay: MHC binding assay: UV-ligand exchange and β2m ELISA (peptide exchange yield, Table 7)
# Settings: binding of HLA-class I restricted peptides to HLA-A*02:01, UV-ligand exchange
# Summary of the method: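 Peptide-MHC complexes made by UV-mediated exchange of a cleavable ligand for test peptide; exchange yield measured by ELISA detecting β2m of stabilized complexes captured on streptavidin, using refolded HLA-A*02:01/MLA-001 monomer standards (15-500 ng/ml). Samples diluted 100-fold; HRP anti-β2m, TMB, absorbance 450 nm.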
row,Substance,"Peptide exchange (MHC class I binding score, peptide exchange yield)"
1,238 (HLQEKLQSL; listed as Homo sapiens) [compound 238],++ (≥20% = ++)
2,239 (VIIKGLEEITV; listed as Homo sapiens) [compound 239],+++ (≥50% = +++)
3,241 (KQFEGTVEI; listed as Homo sapiens) [compound 241],+++ (≥50% = +++)
4,243 (GLAEFQENV; listed as Homo sapiens) [compound 243],++ (≥20% = ++)
5,245 (ALLEEEEGV; listed as Homo sapiens) [compound 245],++ (≥20% = ++)
6,246 (ALAGIVTNV; listed as Homo sapiens) [compound 246],+++ (≥50% = +++)
7,248 (VLMQDSRLYL; listed as Homo sapiens) [compound 248],+++ (≥50% = +++)
8,252 (SLMEKNQSL; listed as Homo sapiens) [compound 252],++ (≥20% = ++)
9,255 (FLMKNSDLYGA; listed as Homo sapiens) [compound 255],+++ (≥50% = +++)
10,260 (ALNESLVEC; listed as Homo sapiens) [compound 260],+++ (≥50% = +++)
11,263 (SIIEYLPTL; listed as Homo sapiens) [compound 263],+++ (≥50% = +++)
12,264 (TLHDQVHLL; listed as Homo sapiens) [compound 264],++ (≥20% = ++)
13,265 (FLLDKPQDLSI; listed as Homo sapiens) [compound 265],+++ (≥50% = +++)
14,266 (FLLDKPQDL; listed as Homo sapiens) [compound 266],++ (≥20% = ++)
15,269 (GLLDCPIFL; listed as Homo sapiens) [compound 269],++++ (≥75% = ++++)
16,271 (VLIEYNFSI; listed as Homo sapiens) [compound 271],+++ (≥50% = +++)
17,274 (TLYNPERTITV; listed as Homo sapiens) [compound 274],+++ (≥50% = +++)
18,275 (AVPPPPSSV; listed as Homo sapiens) [compound 275],++ (≥20% = ++)
19,278 (VLEDKVLSV; listed as Homo sapiens) [compound 278],+++ (≥50% = +++)
20,279 (VLMDEGAVLTL; listed as Homo sapiens) [compound 279],++ (≥20% = ++)
21,280 (HLWGHALFL; listed as Homo sapiens) [compound 280],+++ (≥50% = +++)
22,282 (SLYALHVKA; listed as Homo sapiens) [compound 282],++ (≥20% = ++)
23,283 (ALSELLQQV; listed as Homo sapiens) [compound 283],+++ (≥50% = +++)
24,284 (KLMDPGSLPPL; listed as Homo sapiens) [compound 284],++ (≥20% = ++)

# The next lines start with the values.
row,"Peptide exchange (MHC class I binding score, peptide exchange yield)",Substance
1,+++ (≥50% = +++),233 (SLFESLEYL; listed as Homo sapiens) [compound 233]
2,++++ (≥75% = ++++),234 (VLLNEILEQV; listed as Homo sapiens) [compound 234]
3,++ (≥20% = ++),235 (SLLNQPKAV; listed as Homo sapiens) [compound 235]
4,+++ (≥50% = +++),236 (KMSELQTYV; listed as Homo sapiens) [compound 236]
5,+++ (≥50% = +++),237 (ALLEQTGDMSL; listed as Homo sapiens) [compound 237]
6,+++ (≥50% = +++),242 (KLQEEIPVL; listed as Homo sapiens) [compound 242]
7,+++ (≥50% = +++),244 (NVAEIVIHI; listed as Homo sapiens) [compound 244]
8,++ (≥20% = ++),247 (NLLIDDKGTIKL; listed as Homo sapiens) [compound 247]
9,+++ (≥50% = +++),249 (YLYQILQGI; listed as Homo sapiens) [compound 249]
10,+++ (≥50% = +++),250 (LMQDSRLYL; listed as Homo sapiens) [compound 250]
11,+++ (≥50% = +++),251 (LLWGNLPEI; listed as Homo sapiens) [compound 251]
12,+++ (≥50% = +++),253 (KLLAVIHEL; listed as Homo sapiens) [compound 253]
13,++ (≥20% = ++),254 (ALGDKFLLRV; listed as Homo sapiens) [compound 254]
14,+++ (≥50% = +++),256 (FLNDIFERI; listed as Homo sapiens) [compound 256]
15,+++ (≥50% = +++),257 (KLIDHQGLYL; listed as Homo sapiens) [compound 257]
16,++ (≥20% = ++),258 (QLVQRVASV; listed as Homo sapiens) [compound 258]
17,+ (≥10% = +),259 (GPGIFPPPPPQP; listed as Homo sapiens) [compound 259]
18,+++ (≥50% = +++),261 (GLAALAVHL; listed as Homo sapiens) [compound 261]
19,+++ (≥50% = +++),262 (LLLEAVWHL; listed as Homo sapiens) [compound 262]
20,+++ (≥50% = +++),267 (YLLDMPLWYL; listed as Homo sapiens) [compound 267]
21,++ (≥20% = ++),268 (SLDKDIVAL; listed as Homo sapiens) [compound 268]
22,+++ (≥50% = +++),270 (TLLTFFHEL; listed as Homo sapiens) [compound 270]
23,++ (≥20% = ++),272 (FVMEGEPPKL; listed as Homo sapiens) [compound 272]
24,++ (≥20% = ++),273 (SLNKQIETV; listed as Homo sapiens) [compound 273]
25,+++ (≥50% = +++),276 (RMPTVLQCV; listed as Homo sapiens) [compound 276]
26,+++ (≥50% = +++),277 (KLQEELNKV; listed as Homo sapiens) [compound 277]
27,++ (≥20% = ++),281 (LLLESDPKVYSL; listed as Homo sapiens) [compound 281]
28,+++ (≥50% = +++),285 (MLLDTVQKV; listed as Homo sapiens) [compound 285]
29,+++ (≥50% = +++),286 (FLTEMVHFI; listed as Homo sapiens) [compound 286]
